Blank lines part the entries; values can stand above or below the binder they belong to.
Legend:
[1] = target: YKL-40 A92 (human); test: BLI
[2] = target: YKL-40 A100 (human); test: BLI
[3] = target: YKL-40 A250 (human); test: BLI
[4] = target: YKL-40 A175 (human); test: BLI
[5] = target: YKL-40 A96 (human); test: BLI
[6] = target: human YKL-40 WT (human); test: BLI
[7] = target: YKL-40 A289 (human); test: BLI
[8] = target: YKL-40 R284 (human); test: BLI
[9] = target: YKL-40 A142 (human); test: BLI
[10] = target: YKL-40 A42 (human); test: BLI
[11] = target: YKL-40 A134 (human); test: BLI
[12] = target: YKL-40 A108 (human); test: BLI
[13] = target: YKL-40 A107 (human); test: BLI
[14] = target: YKL-40 A286 (human); test: BLI
[15] = target: YKL-40 A288 (human); test: BLI
[16] = target: YKL-40 A135 (human); test: BLI
[17] = target: YKL-40 A194 (human); test: BLI
[18] = target: YKL-40 A104 (human); test: BLI
[19] = target: YKL-40 A283 (human); test: BLI
[20] = target: YKL-40 A149 (human); test: BLI
[21] = target: YKL-40 A145 (human); test: BLI
[22] = target: YKL-40 R301 (human); test: BLI
[23] = target: YKL-40 A191 (human); test: BLI
[24] = target: YKL-40 A249 (human); test: BLI
[25] = target: YKL-40 A300 (human); test: BLI
[26] = target: YKL-40 A141 (human); test: BLI
[27] = target: YKL-40 A44 (human); test: BLI
[28] = target: YKL-40 A93 (human); test: BLI
[29] = target: YKL-40 A287 (human); test: BLI
[30] = target: YKL-40 A148 (human); test: BLI
[31] = target: YKL-40 A172 (human); test: BLI
[32] = target: YKL-40 A192 (human); test: BLI
[33] = target: YKL-40 A146 (human); test: BLI
[34] = target: YKL-40 A256 (human); test: BLI
[35] = target: YKL-40 A302 (human); test: BLI
[36] = target: calmodulin; test: other dot blot

Chain of YKL-40 R301 (human) (chain, as listed by the source): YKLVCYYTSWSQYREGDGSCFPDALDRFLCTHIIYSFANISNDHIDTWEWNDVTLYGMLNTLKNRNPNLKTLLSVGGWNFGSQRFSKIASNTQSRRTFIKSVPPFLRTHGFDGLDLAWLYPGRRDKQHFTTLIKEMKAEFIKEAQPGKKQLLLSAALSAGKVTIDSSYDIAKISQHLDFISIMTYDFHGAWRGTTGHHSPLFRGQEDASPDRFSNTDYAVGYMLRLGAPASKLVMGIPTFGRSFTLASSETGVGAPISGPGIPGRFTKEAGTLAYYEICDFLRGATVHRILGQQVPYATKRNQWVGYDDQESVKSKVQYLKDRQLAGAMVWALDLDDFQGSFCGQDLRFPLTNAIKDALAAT
Chain of YKL-40 A134 (human) (chain, as listed by the source): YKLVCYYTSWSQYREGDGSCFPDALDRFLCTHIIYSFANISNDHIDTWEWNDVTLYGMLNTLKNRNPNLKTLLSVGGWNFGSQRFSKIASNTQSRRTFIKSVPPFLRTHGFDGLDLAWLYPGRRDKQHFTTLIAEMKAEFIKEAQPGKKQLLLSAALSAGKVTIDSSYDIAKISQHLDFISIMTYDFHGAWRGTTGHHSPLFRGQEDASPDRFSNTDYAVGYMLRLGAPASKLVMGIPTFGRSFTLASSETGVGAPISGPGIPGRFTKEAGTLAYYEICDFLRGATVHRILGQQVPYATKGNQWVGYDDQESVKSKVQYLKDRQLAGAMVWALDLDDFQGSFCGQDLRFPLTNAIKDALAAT
Chain of YKL-40 A249 (human) (chain, as listed by the source): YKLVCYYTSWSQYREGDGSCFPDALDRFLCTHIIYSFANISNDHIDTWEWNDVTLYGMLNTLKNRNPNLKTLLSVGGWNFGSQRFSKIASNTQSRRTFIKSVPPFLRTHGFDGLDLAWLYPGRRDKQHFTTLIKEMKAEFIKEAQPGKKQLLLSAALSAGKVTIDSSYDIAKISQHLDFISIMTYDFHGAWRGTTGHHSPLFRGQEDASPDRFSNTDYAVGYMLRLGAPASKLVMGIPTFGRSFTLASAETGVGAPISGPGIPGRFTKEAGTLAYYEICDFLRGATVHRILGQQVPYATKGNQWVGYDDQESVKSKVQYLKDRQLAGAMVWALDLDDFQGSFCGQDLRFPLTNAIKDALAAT
Chain of YKL-40 A92 (human) (chain, as listed by the source): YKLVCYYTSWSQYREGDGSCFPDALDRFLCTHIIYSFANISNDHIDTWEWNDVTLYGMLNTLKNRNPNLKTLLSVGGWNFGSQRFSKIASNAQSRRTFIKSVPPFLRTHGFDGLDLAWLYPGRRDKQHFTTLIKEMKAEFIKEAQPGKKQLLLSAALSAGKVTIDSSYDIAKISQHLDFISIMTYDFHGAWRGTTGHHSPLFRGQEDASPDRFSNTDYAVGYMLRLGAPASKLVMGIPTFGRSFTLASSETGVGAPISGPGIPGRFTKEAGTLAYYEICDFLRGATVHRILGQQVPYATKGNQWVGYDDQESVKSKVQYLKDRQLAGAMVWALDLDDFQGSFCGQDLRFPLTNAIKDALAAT
Chain of YKL-40 A283 (human) (chain, as listed by the source): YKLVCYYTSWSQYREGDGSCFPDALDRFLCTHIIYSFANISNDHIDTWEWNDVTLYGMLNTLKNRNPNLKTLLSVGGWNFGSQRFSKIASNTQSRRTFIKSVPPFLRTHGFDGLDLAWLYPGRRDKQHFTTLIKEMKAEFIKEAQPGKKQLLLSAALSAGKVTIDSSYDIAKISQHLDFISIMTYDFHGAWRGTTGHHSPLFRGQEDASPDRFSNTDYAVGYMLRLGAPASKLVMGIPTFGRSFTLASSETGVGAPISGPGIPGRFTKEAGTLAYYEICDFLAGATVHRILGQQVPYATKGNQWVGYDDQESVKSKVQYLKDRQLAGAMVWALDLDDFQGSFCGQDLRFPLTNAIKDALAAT
Chain of YKL-40 A149 (human) (chain, as listed by the source): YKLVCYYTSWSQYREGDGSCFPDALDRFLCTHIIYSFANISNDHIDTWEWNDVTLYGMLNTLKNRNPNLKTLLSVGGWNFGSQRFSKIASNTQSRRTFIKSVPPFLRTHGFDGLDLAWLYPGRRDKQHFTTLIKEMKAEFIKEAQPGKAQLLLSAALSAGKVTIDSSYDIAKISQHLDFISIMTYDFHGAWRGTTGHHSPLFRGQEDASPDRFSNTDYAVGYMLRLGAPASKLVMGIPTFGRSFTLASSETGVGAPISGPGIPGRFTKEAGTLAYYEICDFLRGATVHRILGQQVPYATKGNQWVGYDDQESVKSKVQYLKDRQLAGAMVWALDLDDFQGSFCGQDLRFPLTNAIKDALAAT
Chain of YKL-40 A191 (human) (chain, as listed by the source): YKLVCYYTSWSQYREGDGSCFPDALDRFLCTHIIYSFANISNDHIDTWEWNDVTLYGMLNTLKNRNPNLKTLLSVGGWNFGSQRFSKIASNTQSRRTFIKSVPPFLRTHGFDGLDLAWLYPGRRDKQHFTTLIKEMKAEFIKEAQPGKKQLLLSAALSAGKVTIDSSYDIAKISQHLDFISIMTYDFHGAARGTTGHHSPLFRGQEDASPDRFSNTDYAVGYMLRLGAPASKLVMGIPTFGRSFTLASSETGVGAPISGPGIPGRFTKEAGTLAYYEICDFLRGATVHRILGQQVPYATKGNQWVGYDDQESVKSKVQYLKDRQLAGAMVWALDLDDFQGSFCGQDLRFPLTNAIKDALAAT
Chain of YKL-40 A93 (human) (chain, as listed by the source): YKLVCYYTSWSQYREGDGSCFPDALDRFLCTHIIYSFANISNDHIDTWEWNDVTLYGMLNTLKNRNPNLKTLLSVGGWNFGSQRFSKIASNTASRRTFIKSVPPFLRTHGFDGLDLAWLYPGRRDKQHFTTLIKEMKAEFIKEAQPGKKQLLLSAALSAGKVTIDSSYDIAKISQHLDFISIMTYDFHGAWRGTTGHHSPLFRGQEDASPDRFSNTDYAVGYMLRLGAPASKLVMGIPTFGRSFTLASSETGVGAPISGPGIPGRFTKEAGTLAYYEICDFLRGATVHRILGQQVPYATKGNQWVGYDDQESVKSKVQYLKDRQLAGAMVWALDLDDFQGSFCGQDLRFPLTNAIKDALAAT
Chain of YKL-40 A288 (human) (chain, as listed by the source): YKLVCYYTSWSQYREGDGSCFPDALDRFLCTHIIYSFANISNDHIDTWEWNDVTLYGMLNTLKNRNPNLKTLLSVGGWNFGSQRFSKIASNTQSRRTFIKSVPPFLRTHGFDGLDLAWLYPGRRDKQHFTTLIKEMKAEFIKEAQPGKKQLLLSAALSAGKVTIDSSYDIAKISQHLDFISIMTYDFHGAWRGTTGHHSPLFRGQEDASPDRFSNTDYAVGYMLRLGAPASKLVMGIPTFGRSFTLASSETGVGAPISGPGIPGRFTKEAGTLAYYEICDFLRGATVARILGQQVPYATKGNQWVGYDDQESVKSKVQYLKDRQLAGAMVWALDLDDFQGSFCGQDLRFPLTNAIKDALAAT
Chain of YKL-40 A104 (human) (chain, as listed by the source): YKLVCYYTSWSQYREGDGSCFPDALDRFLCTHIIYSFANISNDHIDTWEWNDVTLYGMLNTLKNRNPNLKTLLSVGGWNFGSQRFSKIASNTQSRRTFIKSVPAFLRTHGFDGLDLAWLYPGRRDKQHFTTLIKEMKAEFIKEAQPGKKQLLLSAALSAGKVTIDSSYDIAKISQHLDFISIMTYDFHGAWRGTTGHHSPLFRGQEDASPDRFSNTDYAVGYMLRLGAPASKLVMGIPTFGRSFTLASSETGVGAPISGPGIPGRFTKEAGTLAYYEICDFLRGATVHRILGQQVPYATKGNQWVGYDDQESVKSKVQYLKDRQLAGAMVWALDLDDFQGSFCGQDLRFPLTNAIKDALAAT
Chain of human YKL-40 WT (human) (chain, as listed by the source): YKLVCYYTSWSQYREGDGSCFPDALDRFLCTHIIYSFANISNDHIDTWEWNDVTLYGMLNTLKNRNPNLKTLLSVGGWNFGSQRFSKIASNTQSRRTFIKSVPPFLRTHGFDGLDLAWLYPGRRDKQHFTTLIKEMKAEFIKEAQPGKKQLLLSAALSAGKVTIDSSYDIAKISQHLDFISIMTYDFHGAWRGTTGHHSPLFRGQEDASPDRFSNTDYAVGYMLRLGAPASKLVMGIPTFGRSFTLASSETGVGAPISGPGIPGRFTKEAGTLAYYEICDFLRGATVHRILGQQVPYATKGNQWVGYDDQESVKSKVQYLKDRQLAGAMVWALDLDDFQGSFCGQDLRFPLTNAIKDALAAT
Chain of YKL-40 A256 (human) (chain, as listed by the source): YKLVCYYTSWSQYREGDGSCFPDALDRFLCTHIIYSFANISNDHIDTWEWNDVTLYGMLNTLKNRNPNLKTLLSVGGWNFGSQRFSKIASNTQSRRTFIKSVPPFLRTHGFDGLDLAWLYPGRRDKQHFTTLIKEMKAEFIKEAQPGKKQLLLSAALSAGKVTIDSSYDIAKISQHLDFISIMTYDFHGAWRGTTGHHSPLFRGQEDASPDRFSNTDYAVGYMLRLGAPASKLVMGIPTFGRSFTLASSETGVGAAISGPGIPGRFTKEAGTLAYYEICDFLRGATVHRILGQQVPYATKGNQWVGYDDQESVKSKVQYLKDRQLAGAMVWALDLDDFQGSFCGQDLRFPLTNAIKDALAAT
Chain of YKL-40 A250 (human) (chain, as listed by the source): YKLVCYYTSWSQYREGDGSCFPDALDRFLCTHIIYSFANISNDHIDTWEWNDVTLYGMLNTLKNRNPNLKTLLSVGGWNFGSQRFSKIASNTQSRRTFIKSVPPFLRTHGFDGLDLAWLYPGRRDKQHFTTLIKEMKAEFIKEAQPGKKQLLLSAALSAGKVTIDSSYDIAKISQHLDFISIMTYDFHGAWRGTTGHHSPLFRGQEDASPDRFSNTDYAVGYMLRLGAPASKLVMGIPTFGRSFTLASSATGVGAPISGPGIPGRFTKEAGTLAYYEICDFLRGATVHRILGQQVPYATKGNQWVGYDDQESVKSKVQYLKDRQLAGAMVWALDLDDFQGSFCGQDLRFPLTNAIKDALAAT

Kd [1]: 33.9 nM | Kd [2]: 0.906 nM | Kd [3]: 120 nM | Kd [4]: 0.684 nM | Kd [5]: 0.558 nM | Kd [6]: 1180 nM | Kd [7]: 0.693 nM | Kd [8]: 52 µM | Kd [9]: 0.79 nM | Kd [10]: 2540 nM | Kd [11]: 0.516 nM | Kd [12]: 0.529 nM | Kd [13]: 0.611 nM | Kd [14]: 0.472 nM | Kd [15]: 0.649 nM | Kd [16]: 0.755 nM | Kd [17]: 20.6 µM | Kd [18]: 0.423 nM | Kd [19]: 1.07 nM | Kd [20]: 0.84 nM | Kd [21]: 0.465 nM | Kd [22]: 0.753 nM | Kd [23]: 4.8 µM | Kd [24]: 2480 nM | Kd [25]: 7.26 µM | Kd [26]: 0.638 nM | Kd [27]: 0.439 nM | Kd [28]: 0.777 nM | Kd [29]: 164 nM | Kd [30]: 0.817 nM | Kd [31]: 0.655 nM | Kd [32]: 0.699 nM | Kd [33]: 0.773 nM | Kd [34]: 104 nM | Kd [35]: 0.673 nM
B1: H7 (antibody, V domains shown)
VH: EVQLQQSGAELVKPGASVKLSCTASGFNIKDTYMHWVKQRPEQGLEWIGRIDPANGNTIYASKFQGKATITRDTSSNTAYMQLSSLTSGDTAVYYCTRGVYYYGGSFYAMDYWGQGTSVTVSS
VL: DIQMTQSPASLSASVGETVTITCGASENIYGALNWYQRKQGKSPQLLIYGATTLADGMSSRFSGSGSGRQYSLKISSLHPDDVATYYCQNVLTTPWTFGGGTKLEIKT

binding result [36]: no binding
B2: B3-hFc (antibody)
chain 1: MAEVQLLESGGGLVQPGGSLRLSCAASGFRDSDEDMGWVRQAPGKGLEWVSSISAPGGSTYYADSVKGRFTISRDNSKNTLYLQMNSLRAEDTAVYYCASHYNYGHWFDYWGQGTLVTVSSAA
chain 2: VECPPCPAPPVAGPSVFLFPPKPKDTLMISRTPEVTCVVVDVSHEDPEVQFNWYVDGMEVHNAKTKPREEQFNSTFRVVSVLTVVHQDWLNGKEYKCKVSNKGLPAPIEKTISKTKGQPREPQVYTLPPSREEMTKNQVSLTCLVKGFYPSDIAVEWESNGQPENNYKTTPPMLDSDGSFFLYSKLTVDKSRWQQGNVFSCSVMHEALHNHYTQKSLSLSPGK
